In the NTF2 design screens of Basanta et al. (2020):

Test: protease stability score; higher = more stable; yeast display proteolysis, trypsin and chymotrypsin;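 note: relative to predicted unfolded state with 0 unfolded-like and 1 meaning tenfold more protease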

Row | Sequence | protease stability score
1 | SEEEKTLERIARLHIQLWLTGDEDTLKKLADPDDRLVVDFENHTWEHHGREEVEKHTKHFLRHLRITHVDHHTVQIINGKAHMHTTVDFQVNGKIVKMHTTIIVVEVNGRLKFVRIEVH | 1.22
2 | NEDERETELFLRLFRRALLTGDWRAIEDLMDPNVMIHVNGREFHGREQYYKIVMNELTHWRLHHTKIDDIRLYDGVLRVQLRLQGEINGREDFLHLHVIIEKIDGKWIFRSVEIR | 1.91
3 | SEDEEIWRRYAKEWYHNWSTGNFDRFKQLMDPDARFIYGDKELVGREEVLRRIRHLLEHLRFKRSEIKREHVVNGVLHLDVHEDGEQGDKSRRSDVEIILYVINGRLHTVEIRIE | 1.61
4 | DEEEKHWTTLIEIHFKDLLTGDEDSNLHLADPDYRLRMHFDGRELIFIGREEIHKFWHETVHKFKNMRIEINDSDIQGDKFDVDIAIRIDGVEIRYRLIIILFNGRTHRQEVHNI | 1.3
5 | SEEEHLMRELLEVFLRNMLTGDWDKTAKLADPDTRFRAHVGDFKVERHGMEQFIKWLKDEREQWRIRRIHIDRIELVDGVIRVEGTIDVEYDGVREVERSELILVIIDGRIHEVEVHIR | 1.44
6 | DELDEILVRIAEMVVEIWETGDWEWLEHLLDPHVRLQIGDKEVHGREAIREMIHELLNKLPNIRSHIRLREVRYYNGKAHFNTELRLHINGRDLRSRVRYEILVVDGRVRSMHVEIR | 1.09
7 | DEEEEEVKKVFEMLEKSLETGDEKLWEHMADPNTRIDIGDKEIHGRESFHEIVKHIRIKDIRMRIHEWRTYDGRLDLRGQVELHLNINGKHLDITVEHRLIIVKINGRWLLEEETIV | -0.109
8 | DELKSLSRKATEDIVELIITGDEKMLREYMDPNVRVDINGQEIHGREIFFEYIRHLLEHMGVDHLKLDRMEVRDINGQLYIHFRGTTVFNGRTYDEELIWVIVKIDGRWYIEQIEIRFE | 1.3
9 | DDREKLWHRLVELEKELWLTGDFEDFHSLADPNVQLIVHFDGQEVHYHGRESVTMALKILREQLGADHFEPKSVHYQGNKMQTSMILFVNGREFEFRLTLFVIDGRLKSHHIEWK | 1.48
10 | SEEKRDSHQAIHLFIKNRVTGNWKDLYKNVDPHARLEIGDKHFHGRELFVRLMLELGVDHFDIESVDIQGDFIHIKGQIDVNGRTLDVELVAWKYNGRWYEHSVIIK | 1.16
11 | SEDENLIKHVKELLTHRAHTGDERELERLVDPNVKIIVGDKFQIGRELMLETWHRWLEEAGVDQIRLTLHHERIQGDYIILEVTYDVNGREIELTIIHIKVNGKWRLHSMKVR | 0.529
12 | DSEHEEAKTFVKELDKSIETGDEEKLKELLDPHTLIIVGDKFRIGWEWMANKISQIRIHMETRIRDVEHQGDKMIVHTDVRIDINVDGKKIHEQRDIHLIIRKVNGQWILKEIEIR | 1.36
13 | DEEKELNENLAKIILHMFHTGDEKRWSKMADPHMRANINGVTIHGRELVIKEFLHWRHRLGVKHEEIHHIDIQGDKVRTDSHVDIDGQRVNIILRVVVVNGRLHSEEVEIR | 0.787
14 | DESEKLEELIHERLRHLIETGDEDKLAKMADPNVRNRVGDFVHHGRERSHELLKWIFDHLGIDHLHIKHSSVIDGVVHFEIELRINGRTIRLHDHWFFINGRLDEISIHWE | 0.93
15 | DDDKKRAEELLRLWHEFFETGDEHDMNRNLDPHAKVDVNGKEIHGREFVSEWLVRKVKFFKGIKLEHKRSHFVNGRAHLHTEINFDGVEFEVIIHSDKINGRWLVHEIIIK | 1.17
16 | DEEDKALEESMRTYHESIHTGDEESFRLLFDPDVRMRINGVDLHGREAMEWMSERIDHLELRRIRFRSIETQGNKIRIDGHEDIEILVDGKRMRVIDRVIIQAVKVNGRWTIKSIKFG | 1.15
17 | DTTEKHQKDMARAQIHSLETGDFKELMELLDPNVRFEFEVGDKRIERHGRELMVHFILKEYEEIRIRIDSWRVVNGVVKIELRLHVGDKESRIEIYLLIINGQAKSVHFDVR | 1.09
18 | DEDRKLFTEATHRLNNVLETGDEDSLLRLMDPNTRYKVNGVELIGREMVKHMFRILMHHWRVKSHDYHDIEIQGDWAVIDSRVDGVIDGRRTHTQLRVESIKIDGKWFDHEVTLE | 0.398
19 | SEHDKFTREMSEMLIEALLTGDWRIFEELADPNMRFHQGEFHFHGREEVSHRMLELVDLLGADHYDVREIRFQGDKIHTHLEYYIGDKLFRVDLHAEKVNGKWHLTIVHVDSH | 2.03
20 | SEEETDAKIAYHLEYELLKTGDEKMIHENLDPDARFISDVNGVEHRDHGRENFSRSMSEWLKRFGVDHMDIRHVRFFNGKIDMEVEINVNGVRIDLHLHSHKINGQWIITRVDIRID | 1.24
